Results on six variants are retold here after IntAct's records for PubMed 21346797.

B1: Response regulator aspartate phosphatase H (Bacillus subtilis), Q59HN8 (parent)
chain: MSQAIPSSRVGVKINEWYKMIRQFSVPDAEILKAEVEQDIQQMEEDQDLLIYYSLMCFRHQLMLDYLEPGKTYGNRPTVTELLETIETPQKKLTGLLKYYSLFFRGMYEFDQKEYVEAIGYYREAEKELPFVSDDIEKAEFHFKVAEAYYHMKQTHVSMYHILQALDIYQNHPLYSIRTIQSLFVIAGNYDDFKHYDKALPHLEAALELAMDIQNDRFIAISLLNIANSYDRSGDDQMAVEHFQKAAKVSREKVPDLLPKVLFGLSWTLCKAGQTQKAFQFIEEGLDHITARSHKFYKELFLFLQAVYKETVDERKIHDLLSYFEKKNLHAYIEACARSAAAVFESSCHFEQAAAFYRKVLKAQEDILKGECLYAY
partner: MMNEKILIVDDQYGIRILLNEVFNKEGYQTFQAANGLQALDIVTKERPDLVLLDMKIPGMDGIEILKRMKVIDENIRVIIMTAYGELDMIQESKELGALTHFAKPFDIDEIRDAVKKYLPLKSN

The variants in this assay derive from B1. The settings on record: with sp0f_bacsu spo0F.
On to MSQAIPSSRVGVKINEWYKMIRQFSVPDAEILKAEVEQDIQQMEEDQDLLIYYSLMCFRHQLMLDYLEPGKTYGNRPTVTELLETIETPQKKLTGLLKYYSLFFRGMYEFDQKEYVEAIGYYREAEKELPFVSADIEKAEFHFKVAEAYYHMKQTHVSMYHILQALDIYQNHPLYSIRTIQSLFVIAGNYDDFKHYDKALPHLEAALELAMDIQNDRFIAISLLNIANSYDRSGDDQMAVEHFQKAAKVSREKVPDLLPKVLFGLSWTLCKAGQTQKAFQFIEEGLDHITARSHKFYKELFLFLQAVYKETVDERKIHDLLSYFEKKNLHAYIEACARSAAAVFESSCHFEQAAAFYRKVLKAQEDILKGECLYAY [D134A], for which the “effect of a mutation on the interaction” value is “decreasing interaction”. For the variant MSQAIPSSRVGVKINEWYKMIRQFSVPDAEILKAEVEQDIQQMEEDQDLAIYYSLMCFRHQLMLDYLEPGKTYGNRPTVTELLETIETPQKKLTGLLKYYSLFFRGMYEFDQKEYVEAIGYYREAEKELPFVSDDIEKAEFHFKVAEAYYHMKQTHVSMYHILQALDIYQNHPLYSIRTIQSLFVIAGNYDDFKHYDKALPHLEAALELAMDIQNDRFIAISLLNIANSYDRSGDDQMAVEHFQKAAKVSREKVPDLLPKVLFGLSWTLCKAGQTQKAFQFIEEGLDHITARSHKFYKELFLFLQAVYKETVDERKIHDLLSYFEKKNLHAYIEACARSAAAVFESSCHFEQAAAFYRKVLKAQEDILKGECLYAY [L50A], the “effect of a mutation on the interaction” value is “disrupting interaction”. Consider MSQAIPSSRVGVKINEWYKMIRQFSVPDAEILKAEVEQDIQQMEEDQDLLIYYSLMCFRHQLMLDYLEPGKTYGNRPTVTELLETIETPQKKLTGLLKYYSLFFRGMYEFDQKEYVEAIGYYREAEKELPFVSDDIEKAEFHFKVAEAYYHMKQTHVSMYHILQALDIYQNHPLASIRTIQSLFVIAGNYDDFKHYDKALPHLEAALELAMDIQNDRFIAISLLNIANSYDRSGDDQMAVEHFQKAAKVSREKVPDLLPKVLFGLSWTLCKAGQTQKAFQFIEEGLDHITARSHKFYKELFLFLQAVYKETVDERKIHDLLSYFEKKNLHAYIEACARSAAAVFESSCHFEQAAAFYRKVLKAQEDILKGECLYAY [Y175A], for which the “effect of a mutation on the interaction” value is reported as “disrupting interaction”. In the case of MSQAIPSSRVGVKINEWYKMIRQFSVPDAEILKAEVEQDIQQMEEDNDLLIYYSLMCFRHQLMLDYLEPGKTYGNRPTVTELLETIETPQKKLTGLLKYYSLFFRGMYEFDQKEYVEAIGYYREAEKELPFVSDDIEKAEFHFKVAEAYYHMKQTHVSMYHILQALDIYQNHPLYSIRTIQSLFVIAGNYDDFKHYDKALPHLEAALELAMDIQNDRFIAISLLNIANSYDRSGDDQMAVEHFQKAAKVSREKVPDLLPKVLFGLSWTLCKAGQTQKAFQFIEEGLDHITARSHKFYKELFLFLQAVYKETVDERKIHDLLSYFEKKNLHAYIEACARSAAAVFESSCHFEQAAAFYRKVLKAQEDILKGECLYAY [Q47N], the “effect of a mutation on the interaction” value is “disrupting interaction”.

On to MSQAIPSSRVGVKINEWYKMIRQFSVPDAEILKAEVEQDIQQMEEDQDLLIYYSLMCFRHQLMLDYLEPGKTYGNRPTVTELLETIETPQKKLTGLLKYYSLFFRGMYEFDQKEYVEAIGYYREAEKELPFVSDDIAKAEFHFKVAEAYYHMKQTHVSMYHILQALDIYQNHPLYSIRTIQSLFVIAGNYDDFKHYDKALPHLEAALELAMDIQNDRFIAISLLNIANSYDRSGDDQMAVEHFQKAAKVSREKVPDLLPKVLFGLSWTLCKAGQTQKAFQFIEEGLDHITARSHKFYKELFLFLQAVYKETVDERKIHDLLSYFEKKNLHAYIEACARSAAAVFESSCHFEQAAAFYRKVLKAQEDILKGECLYAY [E137A], for which the “effect of a mutation on the interaction” value is “disrupting interaction”. MSQAIPSSRVGVKINEWYKMIRQFSVPDAEILKAEVEQDIQQMEEDQDLLIYYSLMCARHQLMLDYLEPGKTYGNRPTVTELLETIETPQKKLTGLLKYYSLFFRGMYEFDQKEYVEAIGYYREAEKELPFVSDDIEKAEFHFKVAEAYYHMKQTHVSMYHILQALDIYQNHPLYSIRTIQSLFVIAGNYDDFKHYDKALPHLEAALELAMDIQNDRFIAISLLNIANSYDRSGDDQMAVEHFQKAAKVSREKVPDLLPKVLFGLSWTLCKAGQTQKAFQFIEEGLDHITARSHKFYKELFLFLQAVYKETVDERKIHDLLSYFEKKNLHAYIEACARSAAAVFESSCHFEQAAAFYRKVLKAQEDILKGECLYAY [F58A]: the “effect of a mutation on the interaction” value is on record as “decreasing interaction”.
